What all share (assay): SPOT array
In experiment [1] the target is Sho1 SH3 (SHO1_YEAST), P40073.
Experiment [2] addresses T1, Yhr016c SH3 (YSC84_YEAST), P32793.
T1 chain: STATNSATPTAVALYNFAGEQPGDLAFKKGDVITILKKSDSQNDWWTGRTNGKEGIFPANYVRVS

Experiment [3] has as its target T2, Myo5 SH3 (MYO5_YEAST), Q04439.
T2 chain: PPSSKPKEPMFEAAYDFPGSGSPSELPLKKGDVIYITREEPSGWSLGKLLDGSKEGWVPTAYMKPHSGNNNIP

The target in experiment [4] is T3, Rvs167 SH3 (RV167_YEAST), P39743.
T3 chain: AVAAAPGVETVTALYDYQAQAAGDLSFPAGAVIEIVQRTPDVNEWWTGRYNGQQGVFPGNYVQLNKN

Experiment [5] deals with T4, Boi1 SH3 (BOI1_YEAST), P38041.
T4 chain: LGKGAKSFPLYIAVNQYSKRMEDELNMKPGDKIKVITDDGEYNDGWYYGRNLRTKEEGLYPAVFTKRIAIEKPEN

In experiment [6] the target is T5, Boi2 SH3 (BOI2_YEAST), P39969.
T5 chain: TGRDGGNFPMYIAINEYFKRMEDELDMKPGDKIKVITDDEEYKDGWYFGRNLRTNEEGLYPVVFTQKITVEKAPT

Experiment [7] deals with T6, Yfr024 SH3 (LSB3_YEAST), P43603.
T6 chain: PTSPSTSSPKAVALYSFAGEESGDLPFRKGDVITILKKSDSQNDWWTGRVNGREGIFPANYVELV

The record followed here is article PMC314469, “Protein Interaction Networks by Proteome Peptide Scanning” (PLoS Biology, 2004).

Sho1 SH3 (SHO1_YEAST), P40073, sequence (P40073 295-366): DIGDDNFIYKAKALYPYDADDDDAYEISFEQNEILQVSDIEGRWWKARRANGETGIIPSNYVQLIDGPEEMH

B1: YNL163C 601-614 (peptide)
chain: VLGPKYDPKSPEEH
On to B1, for which the normalised SPOT signal, Boehringer light units (BLU); mean over the file's lines of this peptide in experiment [1] came out at 45.5; in experiment [2], 22.7; in experiment [3], 157; in experiment [4] it was 12.7; in experiment [5], 28.8; in experiment [6] it was 1.9. The normalised SPOT signal, Boehringer light units (BLU); mean over the file's lines of this peptide in experiment [7] was -0.

B2: YMR118C 67-80 (peptide)
chain: VSQRKKRPISPHLT
In the case of B2, the normalised SPOT signal, Boehringer light units (BLU); mean over the file's lines of this peptide in experiment [1] was found to be 59.1; in experiment [2], 10.3; in experiment [3], 814; in experiment [4], 31; in experiment [5] it was 216; in experiment [6], 21.2. In addition, in experiment [7], the normalised SPOT signal, Boehringer light units (BLU); mean over the file's lines of this peptide was 299.

B3: YDL230W 193-206 (peptide)
chain: VTDIKLTPTDPLVG
On to B3, for which the normalised SPOT signal, Boehringer light units (BLU); mean over the file's lines of this peptide in experiment [1] came to 47.9; in experiment [2], 10.3; in experiment [3], 852; in experiment [4], 31; in experiment [5], 71.3; in experiment [6], 0.1. Moreover, in experiment [7], the normalised SPOT signal, Boehringer light units (BLU); mean over the file's lines of this peptide was determined as 45.9.

B4: YAL040C 535-548 (peptide)
chain: VRSKRLFPVRPMAT
Take B4: the normalised SPOT signal, Boehringer light units (BLU); mean over the file's lines of this peptide in experiment [1] is 244; in experiment [2], 236; in experiment [3], 504; in experiment [4], 309; in experiment [5] it was 362; in experiment [6], 0. The same molecule registered a normalised SPOT signal, Boehringer light units (BLU); mean over the file's lines of this peptide in experiment [7] of 2610.

B5: YOR269W 158-171 (peptide)
chain: VTSVKLHPNLPIVF
On to B5, for which the normalised SPOT signal, Boehringer light units (BLU); mean over the file's lines of this peptide in experiment [1] was determined as 58.2; in experiment [2] it was 8.2; in experiment [3] it was 137; in experiment [4] it was 74; in experiment [5], 126; in experiment [6], 10.5. The same molecule had a normalised SPOT signal, Boehringer light units (BLU); mean over the file's lines of this peptide in experiment [7] of 93.9.

B6: YGL209W 201-214 (peptide)
chain: VNTPRSVPNSPNDG
Regarding B6, the normalised SPOT signal, Boehringer light units (BLU); mean over the file's lines of this peptide came out at 47.4 in experiment [1]; 208 in experiment [2]; 65 in experiment [3]; 59.3 in experiment [4]; 28.6 in experiment [5]; 28 in experiment [6]. In addition, in experiment [7], the normalised SPOT signal, Boehringer light units (BLU); mean over the file's lines of this peptide came to 662.

B7: YLR212C 354-367 (peptide)
chain: VNIGRRSPYLPLQP
In the case of B7, the normalised SPOT signal, Boehringer light units (BLU); mean over the file's lines of this peptide in experiment [1] stood at 94; in experiment [2], 19.5; in experiment [3], 476; in experiment [4], 75.4; in experiment [5], 1040; in experiment [6], 19.1. This molecule also registered a normalised SPOT signal, Boehringer light units (BLU); mean over the file's lines of this peptide in experiment [7] of 284.

B8: YKL048C 113-126 (peptide)
chain: VVAVKIIPKKPWNA
As for B8, the normalised SPOT signal, Boehringer light units (BLU); mean over the file's lines of this peptide in experiment [1] is 66.9; in experiment [2], 14.7; in experiment [3], 115; in experiment [4], 47.8; in experiment [5] it was 85.7; in experiment [6], 30.9. Further, the normalised SPOT signal, Boehringer light units (BLU); mean over the file's lines of this peptide in experiment [7] came out at 42.

B9: YER093C 584-597 (peptide)
chain: VLKIKPLPYKPRGR
With B9, the normalised SPOT signal, Boehringer light units (BLU); mean over the file's lines of this peptide was found to be 3410 in experiment [1]; 27.3 in experiment [2]; 647 in experiment [3]; 25 in experiment [4]; 1590 in experiment [5]; 34.8 in experiment [6]. The molecule further displayed a normalised SPOT signal, Boehringer light units (BLU); mean over the file's lines of this peptide in experiment [7] of 426.

B10: YCR030C 726-739 (peptide)
chain: VLTVKMSPSLPDEI
Take B10: the normalised SPOT signal, Boehringer light units (BLU); mean over the file's lines of this peptide in experiment [1] was determined as 49.5; in experiment [2], 20.6; in experiment [3], 230; in experiment [4], 4.4; in experiment [5], 173; in experiment [6], 28.2. The molecule also displayed a normalised SPOT signal, Boehringer light units (BLU); mean over the file's lines of this peptide in experiment [7] of 444.

B11: YPL059W 48-61 (peptide)
chain: VLFMKGTPEFPKSG
On to B11, for which the normalised SPOT signal, Boehringer light units (BLU); mean over the file's lines of this peptide turned out to be 51.5 in experiment [1]; 128 in experiment [2]; 213 in experiment [3]; 267 in experiment [4]; 151 in experiment [5]; 108 in experiment [6]. The normalised SPOT signal, Boehringer light units (BLU); mean over the file's lines of this peptide in experiment [7] stood at 666.

B12: YMR140W 298-311 (peptide)
chain: VQIKRADPHFPHDE
For B12, the normalised SPOT signal, Boehringer light units (BLU); mean over the file's lines of this peptide in experiment [1] was 30.6; in experiment [2] it was 41.5; in experiment [3] it was 132; in experiment [4] it was 63.1; in experiment [5] it was 33.5; in experiment [6] it was 20. The molecule also showed a normalised SPOT signal, Boehringer light units (BLU); mean over the file's lines of this peptide in experiment [7] of 44.1.

B13: YCL055W 187-200 (peptide)
chain: VPIDKKSPFYPGLD
B13: the normalised SPOT signal, Boehringer light units (BLU); mean over the file's lines of this peptide was determined as 20.8 in experiment [1]; 20.7 in experiment [2]; 150 in experiment [3]; 59.1 in experiment [4]; 152 in experiment [5]; 31.1 in experiment [6]. The normalised SPOT signal, Boehringer light units (BLU); mean over the file's lines of this peptide in experiment [7] is 32.1.

B14: YAR007C 257-270 (peptide)
chain: VSKAKLQPAKPQFT
For B14, the normalised SPOT signal, Boehringer light units (BLU); mean over the file's lines of this peptide in experiment [1] is 61.2; in experiment [2], 50.6; in experiment [3], 252; in experiment [4], 28.5; in experiment [5], 657; in experiment [6] it was 21.4. This molecule also had a normalised SPOT signal, Boehringer light units (BLU); mean over the file's lines of this peptide in experiment [7] of 96.3.
